What all share (test): two-hybrid library CCmax;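 also: natural log of median RNA to DNA barcode read ratio; higher means stronger binding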
In one assay the target is T1, 4H3619-AA.
T1 chain: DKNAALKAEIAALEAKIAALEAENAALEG
The settings on record: mean of both orientations.

A further assay concerns the target T2, P6-AA-12HAA-T.
T2 chain: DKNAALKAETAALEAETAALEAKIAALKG

For the next assay, the target named is T3, P6-AA-12HAA-R.
T3 chain: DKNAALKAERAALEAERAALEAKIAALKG
To be noted: mean of both orientations.

The target in the next assay is T4, 4H1802-AA.
T4 chain: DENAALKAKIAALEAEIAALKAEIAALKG
The settings on record: mean of both orientations.

In the next assay the target is T5, 4H486-AA.
T5 chain: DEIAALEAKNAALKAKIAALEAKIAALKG
The settings on record: mean of both orientations.

The next assay addresses T6, 4H58-AA.
T6 chain: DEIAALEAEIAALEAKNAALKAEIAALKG
To be noted: mean of both orientations.

The next assay deals with T7, 4H816-AA.
T7 chain: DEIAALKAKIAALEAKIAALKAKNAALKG
The settings on record: mean of both orientations.

A further assay addresses T8, 4H3664-AA.
T8 chain: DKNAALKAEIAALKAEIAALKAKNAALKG
The settings on record: mean of both orientations.

A further assay has as its target T9, APC4436-AA.
T9 chain: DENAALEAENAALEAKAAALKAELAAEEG
To be noted: mean of both orientations.

Another assay deals with T10, P5-AA-1HAA-N.
T10 chain: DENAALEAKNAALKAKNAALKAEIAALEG
The settings on record: mean of both orientations.

For the next assay, the target named is T11, P6-AA-1HAA-H.
T11 chain: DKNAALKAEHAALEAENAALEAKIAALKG
To be noted: mean of both orientations.

A further assay deals with T12, P6-AA-12HGe-A.
T12 chain: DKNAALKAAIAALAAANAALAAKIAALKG
To be noted: mean of both orientations.

A further assay addresses T13, P6-AA-12HGe-H.
T13 chain: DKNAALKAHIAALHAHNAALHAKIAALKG
To be noted: mean of both orientations.

As to DEIAALEAENAALKAKNAALKAEIAALEG [4H249-AA], the interaction score with 4H3619-AA was -1.97. For DENAALEAKIAALKAKIAALKAEIAALEG [4H1385-AA], the interaction score came to 1.61 in the assay with P6-AA-12HAA-T and 1.72 with P6-AA-12HAA-R. In the case of DENAALEAENAALKAKIAALKAEIAALEG [4H1257-AA], the interaction score with 4H1802-AA was -1.38; in the assay with 4H486-AA, 1.54; with 4H58-AA, -1.21. Turning to DENAALEAKIAALKAEIAALEAKIAALKG [4H1350-AA], the interaction score is 1.16 with 4H816-AA and 0.037 with 4H3664-AA. In the assay with APC4436-AA, DENAALKAKIAALEAKNAALEAKIAALEG [4H1845-AA] came in with an interaction score of -1.83. For the molecule DKNAALKAEIAALEAENAALEAKIAALKG [4H3606-AA], the interaction score in the assay with P5-AA-1HAA-N was determined as 1.72. Regarding DENAALEAKIAALKAKNAALKAEIAALEG [4H1401-AA], the interaction score with P6-AA-1HAA-H was 2.06; in the assay with P6-AA-12HGe-A, -0.0521; with P6-AA-12HGe-H it was -1.23.

(Values after PMC10397247.)
